Experimental findings from article PMC8944867 are described below.

This assay has as its target HOIP UBA-RBR-LDD/HOIL-1L UBL complex (human) (UniProt Q96EP0). Description: ITC. A general note: ITC needs no label: the signal is the heat of the interaction.

Sequence of HOIP UBA-RBR-LDD/HOIL-1L UBL complex (human) (Q96EP0 whole entry, chain 1 of 2): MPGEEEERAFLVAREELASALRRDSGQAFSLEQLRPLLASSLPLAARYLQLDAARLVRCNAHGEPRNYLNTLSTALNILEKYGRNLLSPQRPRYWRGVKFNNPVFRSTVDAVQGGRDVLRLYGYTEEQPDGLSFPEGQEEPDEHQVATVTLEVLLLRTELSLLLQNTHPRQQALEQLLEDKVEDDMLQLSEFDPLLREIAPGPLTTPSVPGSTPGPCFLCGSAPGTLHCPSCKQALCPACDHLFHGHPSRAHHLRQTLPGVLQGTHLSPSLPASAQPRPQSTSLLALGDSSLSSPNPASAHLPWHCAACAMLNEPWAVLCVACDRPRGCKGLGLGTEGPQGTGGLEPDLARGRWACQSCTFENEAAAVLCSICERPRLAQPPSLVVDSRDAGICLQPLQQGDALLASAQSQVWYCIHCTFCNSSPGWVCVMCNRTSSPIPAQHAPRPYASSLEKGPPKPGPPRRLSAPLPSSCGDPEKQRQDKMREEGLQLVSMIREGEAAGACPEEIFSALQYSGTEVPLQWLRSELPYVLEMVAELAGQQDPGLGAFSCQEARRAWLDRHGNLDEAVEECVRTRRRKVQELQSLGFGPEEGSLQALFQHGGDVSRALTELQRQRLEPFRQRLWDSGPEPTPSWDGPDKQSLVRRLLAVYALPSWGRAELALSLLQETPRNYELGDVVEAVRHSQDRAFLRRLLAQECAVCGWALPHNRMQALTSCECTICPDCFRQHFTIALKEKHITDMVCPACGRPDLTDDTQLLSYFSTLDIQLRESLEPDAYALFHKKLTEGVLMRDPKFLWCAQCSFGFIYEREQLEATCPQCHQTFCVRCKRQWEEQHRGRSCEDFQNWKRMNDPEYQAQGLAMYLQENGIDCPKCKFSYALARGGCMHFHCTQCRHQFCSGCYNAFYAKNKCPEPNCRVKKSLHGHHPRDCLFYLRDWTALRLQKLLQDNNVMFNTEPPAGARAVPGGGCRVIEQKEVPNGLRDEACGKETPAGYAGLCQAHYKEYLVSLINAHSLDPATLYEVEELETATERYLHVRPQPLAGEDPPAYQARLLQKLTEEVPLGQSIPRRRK
Sequence of HOIP UBA-RBR-LDD/HOIL-1L UBL complex (human) (Q9BYM8 53-135, chain 2 of 2, further chain): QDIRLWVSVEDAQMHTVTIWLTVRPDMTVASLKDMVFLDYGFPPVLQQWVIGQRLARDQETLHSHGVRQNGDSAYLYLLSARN

Consider “IpaH1.4 LRR domain (from UniProt A0A0H2USG1 38-283) (domain or fragment)”, for which the Kd was found to be 2300 nM.

As a reminder, the Kd is the constant that tells how readily two partners part at equilibrium.
